The results in this text go back to article PMC1420302.

The target in this assay is SF3b1-NT-His6 (human) (UniProt O75533).
Sequence of UniProt O75533 (O75533 1-511): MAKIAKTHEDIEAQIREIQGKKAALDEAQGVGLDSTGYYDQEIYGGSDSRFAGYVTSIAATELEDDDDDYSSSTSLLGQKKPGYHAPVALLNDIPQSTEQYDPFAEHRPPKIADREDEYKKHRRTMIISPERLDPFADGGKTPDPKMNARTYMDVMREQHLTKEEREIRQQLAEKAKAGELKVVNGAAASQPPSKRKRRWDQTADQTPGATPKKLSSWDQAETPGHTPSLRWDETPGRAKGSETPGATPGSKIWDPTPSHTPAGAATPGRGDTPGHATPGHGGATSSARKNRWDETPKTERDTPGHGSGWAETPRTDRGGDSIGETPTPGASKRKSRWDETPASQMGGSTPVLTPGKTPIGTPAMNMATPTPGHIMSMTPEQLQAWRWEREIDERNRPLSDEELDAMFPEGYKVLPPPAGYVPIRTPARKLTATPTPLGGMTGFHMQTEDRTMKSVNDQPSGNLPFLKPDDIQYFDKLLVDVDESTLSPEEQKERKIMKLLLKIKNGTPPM

Turning to “GST-DYRK1A-ΔC (from UniProt Q63470 1-763) (enzyme)”, the approximate Km of phosphorylation, from velocities of phosphate incorporation at 0.7 and 7 μM substrate was 2.75 µM.

Substance “cyclin E/CDK2 (from UniProt P24864 1-410; P24941 1-298) (complex)” returned an approximate Km of phosphorylation, from velocities of phosphate incorporation at 0.7 and 7 μM substrate of 3.51 µM.
